Data taken from patent EP1354598A2 (ZymoGenetics, Inc., dated 2003).

How the values were obtained:
soluble I^125-ztnf4 = biological target: T1, soluble I^125-ztnf4 (human, UniProt Q9Y275 134-285, limits assumed, 125I-labelled); assay: Scatchard analysis of soluble 125I-ztnf4 on stable BHK transfectants expressing BCMA
T1 construct: also called ztnf4 sol; neutrokine alpha

soluble ztnf4 (human) = soluble ztnf4 (human) (UniProt Q9Y275); assay: cell-based or functional assay

| Kd (soluble I^125-ztnf4) | inhibition of soluble ztnf4-stimulated human B cell proliferation (3H thymidine, with IL-4) (fold molar excess) (soluble ztnf4 (human)) | Binder |
| --- | --- | --- |
| 1.25 nM |  | BCMA (SEQ ID NO:8) (receptor, also called BCMA-BHK) MLQMAGQCSQNEYFDSLLHACIPCQLRCSSNTPPLTCQRYCNASVTNSVKGTNAILWTCLGLSLIISLAVFVLMFLLRKISSEPLKDEFKNTGSGLLGMANIDLEKSRTGDEIILPRGLEYTVEECTCEDCIKSKPKVDSDHCFPLPAMEEGATILVTTKTNDYCKSLPAALSATEIEKSISAR |
|  | 10 | TACI-Ig soluble receptor (TACI-Fc4 fusion protein) (Fc fusion, part only; not given: Fc4 part, part only) chain, part: MSGLGRSRRGGRSRVDQEERFPQGLWTGVAMRSCPEEQYWDPLLGTCMSCKTICNHQSQRTCAAFCRSLSCRKEQGKFYDHLLRDCISCASICGQHPKQCAYFCENKLRSPVNLPPELRRQRSGEVENNSDNSGRYQGLEHRGSEASPALPGLKLSADQVALVYS |
